This note sets out measurements from patent publication US20240368565A1 (PROMEGA, published 2024).

Where “and” joins values, the source holds several entries; their conditions need not be identical. Equal entries are not always repeated. Ends that are not written are not given here. * marks the point of attachment. Biotin = O=C1N[C@H]2[C@H](CS[C@H]2CCCCC(=O)*)N1

What is called Kd is the concentration at which binding is half-saturated. A word on the koff: it is a measure of how fast the partners let go of each other. By kon is commonly meant a measure of how fast the partners come together.

Assay [1] has as its target T1, Biotin-HaloTag[3-19] (I2R + G3K)-4xGly/Ser-VS-HiBiT (N-terminal biotin).
T1 construct: Synthetic peptide; also called HaloTag[3-19](I2R + G3K)-4xGS-VSHiBIT
T1 peptide: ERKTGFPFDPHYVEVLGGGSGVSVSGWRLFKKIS
In words: BLI; biotin-peptide on streptavidin probe; PBST, 25 C. (Biolayer interferometry detects binding as a change in optical thickness at a sensor tip.)

The target in assay [2] is T2, Biotin-HaloTag[3-19] (I2R + G5R)-4xGly/Ser-VS-HiBiT (N-terminal biotin).
T2 construct: Synthetic peptide; also called HaloTag[3-19](I2R + G5R)-4xGS-VSHiBiT
T2 peptide: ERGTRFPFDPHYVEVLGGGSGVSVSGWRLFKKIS
Described as above.

Assay [3] has as its target T3, Biotin-HaloTag[3-19] (D9R + E14K)-4xGly/Ser-VS-HiBiT (N-terminal biotin).
T3 construct: Synthetic peptide; also called HaloTag[3-19](D9R + E14K)-4xGS-VSHiBiT
T3 peptide: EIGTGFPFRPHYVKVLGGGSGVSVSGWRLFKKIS
The assay is described as above.

Assay [4] has as its target T4, Biotin-HaloTag[3-19] (D9R + L16R)-4xGly/Ser-VS-HiBiT (N-terminal biotin).
T4 construct: Synthetic peptide; also called HaloTag[3-19](D9R + L16R)-4xGS-VSHiBiT
T4 peptide: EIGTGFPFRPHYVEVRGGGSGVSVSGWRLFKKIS
The description is as above.

Assay [5] addresses T5, Biotin-VS-HiBiT.
T5 construct: Synthetic peptide
T5 peptide: Biotin-VSVSGWRLFKKIS
Described as above.

Assay [6] concerns the target FKBP-SmHT-HiBiT. As to the kind of experiment: cell-based or functional assay.
Assay [7] deals with T6, Biotin-HaloTag[3-19] (G5R)-4xGly/Ser-VS-HiBiT (N-terminal biotin).
T6 construct: Synthetic peptide
T6 peptide: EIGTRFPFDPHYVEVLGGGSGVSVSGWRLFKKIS
As to the kind of experiment: BLI; biotin-peptide on streptavidin probe; PBST, 25 C.

The target in assay [8] is T7, Biotin-HaloTag[3-19] (D9R)-4xGly/Ser-VS-HiBiT (N-terminal biotin).
T7 construct: Synthetic peptide
T7 peptide: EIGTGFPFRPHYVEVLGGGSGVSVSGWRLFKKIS
Described as above.

For assay [9], the target named is T8, Biotin-HaloTag[3-19] (E14K)-4xGly/Ser-VS-HiBIT (N-terminal biotin).
T8 construct: Synthetic peptide
T8 peptide: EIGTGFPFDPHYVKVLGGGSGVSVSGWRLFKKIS
The assay is described as above.

Assay [10] has as its target T9, Biotin-HaloTag[3-19] (L16R)-4xGly/Ser-VS-HiBiT (N-terminal biotin).
T9 construct: Synthetic peptide
T9 peptide: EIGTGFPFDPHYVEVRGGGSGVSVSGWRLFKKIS
The description is as above.

Assay [11] deals with T10, Biotin-HaloTag[3-19] (I2R + D9R)-4xGly/Ser-VS-HiBiT (N-terminal biotin).
T10 construct: Synthetic peptide; also called HaloTag[3-19](I2R + D9R)-4xGS-VSHiBiT
T10 peptide: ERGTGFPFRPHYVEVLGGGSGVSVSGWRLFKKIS
The assay is described as above.

In assay [12] the target is T11, Biotin-HaloTag[3-19] (I2R + G17R)-4xGly/Ser-VS-HiBiT (N-terminal biotin).
T11 construct: Synthetic peptide; also called HaloTag[3-19](I2R + G17R)-4xGS-VSHiBiT
T11 peptide: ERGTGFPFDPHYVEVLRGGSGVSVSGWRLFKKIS
The assay is described as above.

Assay [13] concerns the target T12, Biotin-HaloTag[3-19] (G3K + E14K)-4xGly/Ser-VS-HiBiT (N-terminal biotin).
T12 construct: Synthetic peptide; also called HaloTag[3-19](G3K + E14K)-4xGS-VSHiBiT
T12 peptide: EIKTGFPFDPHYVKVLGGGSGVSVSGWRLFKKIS
The description is as above.

Assay [14] deals with T13, Biotin-HaloTag[3-19] (G3K + L16R)-4xGly/Ser-VS-HiBiT (N-terminal biotin).
T13 construct: Synthetic peptide; also called HaloTag[3-19](G3K + L16R)-4xGS-VSHiBiT
T13 peptide: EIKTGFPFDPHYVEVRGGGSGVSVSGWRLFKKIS
Described as above.

The target in assay [15] is T14, Biotin-HaloTag[3-19] (I2R)-4xGly/Ser-VS-HiBiT (N-terminal biotin).
T14 construct: Synthetic peptide; also called HaloTag[3-19](12R)-4×Gly/Ser-VS-HiBiT; DualTag peptide
T14 peptide: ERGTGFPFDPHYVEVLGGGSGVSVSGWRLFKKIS
The assay is described as above.

The target in assay [16] is T15, Biotin-HaloTag[3-19] (G3K)-4xGly/Ser-VS-HiBIT (N-terminal biotin).
T15 construct: Synthetic peptide
T15 peptide: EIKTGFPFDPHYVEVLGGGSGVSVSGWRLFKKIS
The assay is described as above.

B1: LgBiT-6xHis (other)
chain: MVFTLEDFVGDWEQTAAYNLDQVLEQGGVSSLLQNLAVSVTPIQRIVRSGENALKIDIHVIIPYEGLSADQMAQIEEVFKVVYPVDDHHFKVILPYGTLVIDGVTPNMLNYFGRPYEGIAVFDGKKITVTGTLWNGNKIIDERLITPDGSMLFRVTINSHHHHHH
notes: also called LgBiT-6×His; LgBiT alone
Take B1: the results for the Kd in [1], in assay [2] and in assay [5] were 0.323 nM, 0.11 nM and 5.06 nM, respectively. For the same molecule, the results for the koff in [1], in assay [2] and in assay [5] were 2.4e-05 s⁻¹, 5.86e-06 s⁻¹ and 0.000931 s⁻¹, respectively. For the same molecule, the kon in assay [1] is 74500 M⁻¹ s⁻¹; in assay [2] it was 53200 M⁻¹ s⁻¹; in assay [3], 83000 M⁻¹ s⁻¹; in assay [4] it was 64800 M⁻¹ s⁻¹; in [5] it was 184000 M⁻¹ s⁻¹.

B2: HaloTag[22-297](Q145H+P154R)-LgBiT (other)
chain: MMHYVDVGPRDGTPVLFLHGNPTSSYVWRNIIPHVAPTHRCIAPDLIGMGKSDKPDLGYFFDDHVRFMDAFIEALGLEEVVLVIHDWGSALGFHWAKRNPERVKGIAFMEFIRPIPTWDEWPEFARETFQAFRTTDVGRKLIIDHNVFIEGTLRMGVVRPLTEVEMDHYREPFLNPVDREPLWRFPNELPIAGEPANIVALVEEYMDWLHQSPVPKLLFWGTPGVLIPPAEAARLAKSLPNCKAVDIGPGLNLLQEDNPDLIGSEIARWLSTLEISGGSGGSGGGGSGGMVFTLEDFVGDWEQTAAYNLDQVLEQGGVSSLLQNLAVSVTPIQRIVRSGENALKIDIHVIIPYEGLSADQMAQIEEVFKVVYPVDDHHFKVILPYGTLVIDGVTPNMLNYFGRPYEGIAVFDGKKITVTGTLWNGNKIIDERLITPDGSMLFRVTINSGSGHHHHHH
For B2, the “luminescence (FIG. 9)” value in assay [6] was about 100 fold.

B3: HaloTag[22-297](M2F + K140E)-12xGly/Ser-LgBiT-3xGly/Ser-6xHis (other)
chain: MFHYVDVGPRDGTPVLFLHGNPTSSYVWRNIIPHVAPTHRCIAPDLIGMGKSDKPDLGYFFDDHVRFMDAFIEALGLEEVVLVIHDWGSALGFHWAKRNPERVKGIAFMEFIRPIPTWDEWPEFARETFQAFRTTDVGRELIIDQNVFIEGTLPMGVVRPLTEVEMDHYREPFLNPVDREPLWRFPNELPIAGEPANIVALVEEYMDWLHQSPVPKLLFWGTPGVLIPPAEAARLAKSLPNCKAVDIGPGLNLLQEDNPDLIGSEIARWLSTLEISGGSGGSGGGGSGGMVFTLEDFVGDWEQTAAYNLDQVLEQGGVSSLLQNLAVSVTPIQRIVRSGENALKIDIHVIIPYEGLSADQMAQIEEVFKVVYPVDDHHFKVILPYGTLVIDGVTPNMLNYFGRPYEGIAVFDGKKITVTGTLWNGNKIIDERLITPDGSMLFRVTINSGSGHHHHHH
notes: Purified tandem polypeptide reporter variant
Take B3: the kon in [7] was found to be 85300 M⁻¹ s⁻¹; in [8] it was 86600 M⁻¹ s⁻¹; in [9] it was 108000 M⁻¹ s⁻¹; in [10], 77900 M⁻¹ s⁻¹; in [1], 104000 M⁻¹ s⁻¹; in assay [2] it was 95100 M⁻¹ s⁻¹. The association rate constant (kon) was 152000 M⁻¹ s⁻¹ in [3]; 134000 M⁻¹ s⁻¹ in assay [4]; 128000 M⁻¹ s⁻¹ in assay [11]; 93300 M⁻¹ s⁻¹ in [12]; 128000 M⁻¹ s⁻¹ in assay [13]; 97100 M⁻¹ s⁻¹ in assay [14]. The kon in assay [15] is 66700 M⁻¹ s⁻¹ and 70000 M⁻¹ s⁻¹; in [16] it was 73000 M⁻¹ s⁻¹. Further, the Kd in [8] was 0.126 nM; in assay [3], 0.111 nM; in assay [15], 0.684 nM and 0.466 nM; in [16], 0.264 nM. The koff in assay [8] is 1.09e-05 s⁻¹; in [3] it was 1.69e-05 s⁻¹; in assay [15], 4.56e-05 s⁻¹ and 3.26e-05 s⁻¹; in [16], 1.93e-05 s⁻¹.

B4: HaloTag[22-297](M2F + F148M + V177E)-12xGly/Ser-LgBiT-3xGly/Ser-6xHis (other)
chain: MFHYVDVGPRDGTPVLFLHGNPTSSYVWRNIIPHVAPTHRCIAPDLIGMGKSDKPDLGYFFDDHVRFMDAFIEALGLEEVVLVIHDWGSALGFHWAKRNPERVKGIAFMEFIRPIPTWDEWPEFARETFQAFRTTDVGRKLIIDQNVMIEGTLPMGVVRPLTEVEMDHYREPFLNPEDREPLWRFPNELPIAGEPANIVALVEEYMDWLHQSPVPKLLFWGTPGVLIPPAEAARLAKSLPNCKAVDIGPGLNLLQEDNPDLIGSEIARWLSTLEISGGSGGSGGGGSGGMVFTLEDFVGDWEQTAAYNLDQVLEQGGVSSLLQNLAVSVTPIQRIVRSGENALKIDIHVIIPYEGLSADQMAQIEEVFKVVYPVDDHHFKVILPYGTLVIDGVTPNMLNYFGRPYEGIAVFDGKKITVTGTLWNGNKIIDERLITPDGSMLFRVTINSGSGHHHHHH
notes: as for B3
Take B4: the Kd in assay [7] amounted to 0.485 nM; in [5], 2.4 nM; in [15], 0.509 nM; in [16] it was 0.102 nM. For the same molecule, the dissociation rate constant (koff) turned out to be 2.23e-05 s⁻¹ in [7], 0.000628 s⁻¹ in assay [5], 2.75e-05 s⁻¹ in assay [15] and 5.03e-06 s⁻¹ in [16]. In addition, the on-rate (kon) in assay [7] was found to be 46000 M⁻¹ s⁻¹; in assay [5], 261000 M⁻¹ s⁻¹; in assay [15], 54000 M⁻¹ s⁻¹; in assay [16], 49500 M⁻¹ s⁻¹.

B5: HaloTag[22-297](M2F + D53G + V177E)-12xGly/Ser-LgBiT-3xGly/Ser-6xHis (other)
chain: MFHYVDVGPRDGTPVLFLHGNPTSSYVWRNIIPHVAPTHRCIAPDLIGMGKSGKPDLGYFFDDHVRFMDAFIEALGLEEVVLVIHDWGSALGFHWAKRNPERVKGIAFMEFIRPIPTWDEWPEFARETFQAFRTTDVGRKLIIDQNVFIEGTLPMGVVRPLTEVEMDHYREPFLNPEDREPLWRFPNELPIAGEPANIVALVEEYMDWLHQSPVPKLLFWGTPGVLIPPAEAARLAKSLPNCKAVDIGPGLNLLQEDNPDLIGSEIARWLSTLEISGGSGGSGGGGSGGMVFTLEDFVGDWEQTAAYNLDQVLEQGGVSSLLQNLAVSVTPIQRIVRSGENALKIDIHVIIPYEGLSADQMAQIEEVFKVVYPVDDHHFKVILPYGTLVIDGVTPNMLNYFGRPYEGIAVFDGKKITVTGTLWNGNKIIDERLITPDGSMLFRVTINSGSGHHHHHH
notes: as for B3
In assay [15], B5 gave a Kd of 0.669 nM, a koff of 4.09e-05 s⁻¹ and a kon of 61300 M⁻¹ s⁻¹.

B6: HaloTag[22-297](M2F)-12xGly/Ser-LgBiT (other)
chain: MFHYVDVGPRDGTPVLFLHGNPTSSYVWRNIIPHVAPTHRCIAPDLIGMGKSDKPDLGYFFDDHVRFMDAFIEALGLEEVVLVIHDWGSALGFHWAKRNPERVKGIAFMEFIRPIPTWDEWPEFARETFQAFRTTDVGRKLIIDQNVFIEGTLPMGVVRPLTEVEMDHYREPFLNPVDREPLWRFPNELPIAGEPANIVALVEEYMDWLHQSPVPKLLFWGTPGVLIPPAEAARLAKSLPNCKAVDIGPGLNLLQEDNPDLIGSEIARWLSTLEISGGSGGSGGGGSGGMVFTLEDFVGDWEQTAAYNLDQVLEQGGVSSLLQNLAVSVTPIQRIVRSGENALKIDIHVIIPYEGLSADQMAQIEEVFKVVYPVDDHHFKVILPYGTLVIDGVTPNMLNYFGRPYEGIAVFDGKKITVTGTLWNGNKIIDERLITPDGSMLFRVTINS
For B6, the “luminescence (FIG. 9)” value in assay [6] was about 100 fold.
